Measurements: US20110300139A1 (GENE TECHNO SCIENCE, published 2011)

T1: human α9 integrin (human, UniProt Q13797 30-1035)
T1 sequence: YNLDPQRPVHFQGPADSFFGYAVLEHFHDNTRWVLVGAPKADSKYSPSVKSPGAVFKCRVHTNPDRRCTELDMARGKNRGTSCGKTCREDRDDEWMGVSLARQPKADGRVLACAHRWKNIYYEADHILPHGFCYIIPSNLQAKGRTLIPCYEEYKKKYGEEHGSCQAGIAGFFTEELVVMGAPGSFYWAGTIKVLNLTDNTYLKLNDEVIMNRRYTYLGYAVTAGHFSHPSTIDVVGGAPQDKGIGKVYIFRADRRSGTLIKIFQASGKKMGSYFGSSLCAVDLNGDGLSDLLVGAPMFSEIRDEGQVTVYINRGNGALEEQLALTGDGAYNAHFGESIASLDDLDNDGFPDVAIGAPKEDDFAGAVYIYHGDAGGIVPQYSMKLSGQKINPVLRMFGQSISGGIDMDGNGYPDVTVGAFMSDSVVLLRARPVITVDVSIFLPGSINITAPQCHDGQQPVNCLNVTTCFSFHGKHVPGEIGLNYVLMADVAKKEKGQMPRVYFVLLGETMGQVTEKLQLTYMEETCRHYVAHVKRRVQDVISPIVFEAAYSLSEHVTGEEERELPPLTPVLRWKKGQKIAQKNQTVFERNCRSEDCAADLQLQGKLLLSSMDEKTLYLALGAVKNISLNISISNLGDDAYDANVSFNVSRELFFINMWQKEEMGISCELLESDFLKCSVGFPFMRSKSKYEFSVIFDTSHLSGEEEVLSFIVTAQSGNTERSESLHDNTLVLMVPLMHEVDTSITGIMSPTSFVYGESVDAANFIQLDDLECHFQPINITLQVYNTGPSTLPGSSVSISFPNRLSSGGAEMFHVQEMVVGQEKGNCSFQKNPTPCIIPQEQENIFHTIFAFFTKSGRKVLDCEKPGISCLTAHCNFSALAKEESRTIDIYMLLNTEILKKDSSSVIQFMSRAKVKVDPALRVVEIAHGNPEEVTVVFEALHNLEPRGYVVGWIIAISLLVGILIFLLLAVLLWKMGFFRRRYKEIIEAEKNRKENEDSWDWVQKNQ

T2: human α4 integrin (human, UniProt P13612 34-1032)
T2 construct: whole, on cells; Expressed on CHO K1 cells and used as the negative screen for hybridomas; also called CHO K1 cells expressing human α4 integrin
T2 sequence (looked up): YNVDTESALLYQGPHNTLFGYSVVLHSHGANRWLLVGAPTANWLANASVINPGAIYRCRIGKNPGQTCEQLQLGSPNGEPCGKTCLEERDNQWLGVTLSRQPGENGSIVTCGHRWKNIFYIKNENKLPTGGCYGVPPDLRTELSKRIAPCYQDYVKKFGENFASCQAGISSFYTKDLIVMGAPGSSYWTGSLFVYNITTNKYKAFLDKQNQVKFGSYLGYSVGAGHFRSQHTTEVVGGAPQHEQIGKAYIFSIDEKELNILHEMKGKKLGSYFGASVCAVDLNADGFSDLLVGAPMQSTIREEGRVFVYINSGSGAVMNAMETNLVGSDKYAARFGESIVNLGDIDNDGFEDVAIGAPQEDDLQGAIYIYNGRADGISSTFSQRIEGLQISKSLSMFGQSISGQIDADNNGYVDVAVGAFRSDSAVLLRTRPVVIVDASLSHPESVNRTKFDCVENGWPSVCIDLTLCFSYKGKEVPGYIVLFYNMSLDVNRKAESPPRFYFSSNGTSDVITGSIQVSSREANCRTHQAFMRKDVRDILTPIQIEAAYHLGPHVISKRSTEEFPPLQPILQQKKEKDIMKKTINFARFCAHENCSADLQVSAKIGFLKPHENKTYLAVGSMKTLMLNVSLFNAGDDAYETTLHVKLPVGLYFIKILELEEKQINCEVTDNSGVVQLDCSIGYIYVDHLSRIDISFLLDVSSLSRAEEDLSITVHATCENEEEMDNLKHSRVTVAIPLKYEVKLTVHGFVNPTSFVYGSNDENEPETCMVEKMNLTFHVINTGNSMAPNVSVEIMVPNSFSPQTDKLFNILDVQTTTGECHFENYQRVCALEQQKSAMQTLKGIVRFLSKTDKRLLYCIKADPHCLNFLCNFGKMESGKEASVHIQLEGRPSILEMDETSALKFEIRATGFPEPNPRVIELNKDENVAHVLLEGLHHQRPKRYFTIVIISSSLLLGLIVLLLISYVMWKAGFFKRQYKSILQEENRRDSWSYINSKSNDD


Columns and labels:
[1] = target: T1, human α9 integrin; test: cell-based or functional assay
[2] = target: T1, human α9 integrin; test: FACS binding assay on CHO/huα9 cells
Experimental: (§1) Mouse K33N antibody was tested at various concentrations, starting at 1.67 μg/ml and serial 3-fold dilutions, for binding to CHO/huα9 cells. Geometric mean channel fluorescence values (MCF; Y-axis) are plotted at each antibody concentration tested (X-axis) in the figure. EC₅₀ values were calculated using GraphPad Prism (GraphPad Software, San Diego, Calif.).
as §1, with “Each” for “Mouse K33N”, “5” for “1.67”
Binding of mouse, chimeric and humanized K33N antibodies to human α9 integrin was examined in a FACS binding assay with CHO/huα9 cells. Approximately 5×10⁵ CHO/huα9 cells/test were washed with FACS Binding Buffer (PBS containing 0.5% BSA and 0.05% NaN₃) and suspended in 200 μl of FACS Binding Buffer containing various amounts of test antibody. After 30 min on ice, the cells were washed with FACS Binding Buffer. The cells stained with mouse K33N were then suspended in 100 μl of 1/200-diluted FITC-labeled goat anti-mouse IgG polyclonal antibody (SouthernBiotech) in FACS Binding Buffer. The cells stained with chimeric or humanized K33N were suspended in 100 μl of 1/200-diluted FITC-labeled goat anti-human IgG polyclonal antibody (SouthernBiotech) in FACS Binding Buffer. After 30 min on ice, the cells were washed with FACS Binding Buffer, suspended in 200 μl of FACS Binding Buffer, and analyzed using a FACScan flow cytometer (BD Biosciences, Franklin Lakes, N.J.). […] Between ChK33N and HuK33N antibodies, the binding pattern was very similar to each other (FIG. 22).

[3] = target: T2, human α4 integrin; test: hybridoma screening on transfected cells
Experimental: Mouse monoclonal antibodies against human α9 integrin were prepared according to the subtractive immunization method (by Williams C. V., et al., 1992, Biotechniques 12:842-847). Briefly, three Balb/c mice were injected intraperitoneally with NIH-3T3 cells expressing human α9 integrin (Human α9/NIH-3T3 cells) at 3×10⁶ per mouse. At one and two weeks after the injection, the mice were injected intraperitoneally with 3×10⁶ cells/mouse of Human α9/NIH-3T3 cells, followed by another intravenous injection of the same cells at 2×10⁶ cell/mouse one week later. Hybridomas were prepared by the methods well known in the art (see, for example, Harlow et al., Antibodies: A Laboratory Manual, (Cold Spring Harbor Laboratory Press, 2nd ed. 1988); Hammerling, et al., in: Monoclonal Antibodies and T-Cell Hybridomas, pp. 563-681 (Elsevier, N.Y., 1981). Hybridoma clones producing monoclonal antibodies that were immunospecifically reactive with Human α9/CHO-K1 cells expressing human α9 integrin and with human melanoma cells endogenously expressing human α9 integrin but not with CHO K1 cells expressing human α4 integrin were established and a hybridoma clone (i.e., K33N) producing monoclonal antibody immunospecifically recognizing human α9 integrin were isolated.

Molecule	IC50 of cell adhesion inhibition (G-361 cells to hTNC (AEIDGIEL)-BSA) [1]	EC50 [2]	binding result [3]
mouse anti human α9 integrin antibody Y9A2	0.053 µg/mL	–	–
mouse K33N monoclonal antibody (hybridoma FERM BP-10830) (antibody, mouse IgG1, V domains shown, also called mouse K33N antibody) VH: QVQLQQSGPELVKPGASVKISCKASGYSFTSYYMNWVKKRPGQGLEWIGWIFPGSGNTKYNEKFKGKATLTADTSSSTAYMQVSSLTSEDSAVYFCARSWVSYERGYYFDYWGQGTSLTVSS VL: DIQMTQSPASLAASVGETVTLTCRASENIYYSLAWYQQKQGKSPQLLIYNANSLEDGVPSRFSGSGSGTQYSMKINSMQPEDTATYFCKQAYDVPYTFGGGTKLEIK	0.075 µg/mL	0.104 µg/mL	no binding
chimeric K33N IgG1/κ antibody (antibody, V domains shown, Mouse K33N variable regions on human gamma-1 and kappa constant regions (vector pChK33N); also called ChK33N) VH: QVQLQQSGPELVKPGASVKISCKASGYSFTSYYMNWVKKRPGQGLEWIGWIFPGSGNTKYNEKFKGKATLTADTSSSTAYMQVSSLTSEDSAVYFCARSWVSYERGYYFDYWGQGTSLTVSS VL: DIQMTQSPASLAASVGETVTLTCRASENIYYSLAWYQQKQGKSPQLLIYNANSLEDGVPSRFSGSGSGTQYSMKINSMQPEDTATYFCKQAYDVPYTFGGGTKLEIK	0.09 µg/mL	0.143 µg/mL	–
humanized K33N IgG1/κ antibody (antibody, V domains shown, also called HuK33N) VH: QVQLVQSGAEVKKPGASVKVSCKASGYSFTSYYMNWVRQAPGQRLEWIGWIFPGSGNTKYNEKFKGKATLTADTSASTAYMELSSLRSEDTAVYYCARSWVSYERGYYFDYWGQGTLVTVSS VL: DIQMTQSPSSLSASVGDRVTITCRASENIYYSLAWYQQKPGKAPKLLIYNANSLEDGVPSRFSGSGSGTQYTLTISSLQPEDFATYYCKQAYDVPYTFGQGTKVEIKR	0.084 µg/mL	0.151 µg/mL	–
